Reference: patent US20150258192A1, “COMPOSITIONS AND METHODS FOR PREVENTING OR TREATING CHRONIC LUNG ALLOGRAFT DYSFUNCTION (CLAD) AND IDIOPATHIC PULMONARY FIBROSIS (IPF)” (priority 2014, published 2015)
No end group written: not given here.

Assays:
Experiment in all cases: Kinase Profiling Assay
Assay type in all cases: biochemical
Details in all cases: peptide 100 μM
Mer(h) = target: T1, Mer(h) (Homo sapiens, UniProt Q12866)
T1 construct: purchased Millipore
T1 sequence (Q12866 21-999): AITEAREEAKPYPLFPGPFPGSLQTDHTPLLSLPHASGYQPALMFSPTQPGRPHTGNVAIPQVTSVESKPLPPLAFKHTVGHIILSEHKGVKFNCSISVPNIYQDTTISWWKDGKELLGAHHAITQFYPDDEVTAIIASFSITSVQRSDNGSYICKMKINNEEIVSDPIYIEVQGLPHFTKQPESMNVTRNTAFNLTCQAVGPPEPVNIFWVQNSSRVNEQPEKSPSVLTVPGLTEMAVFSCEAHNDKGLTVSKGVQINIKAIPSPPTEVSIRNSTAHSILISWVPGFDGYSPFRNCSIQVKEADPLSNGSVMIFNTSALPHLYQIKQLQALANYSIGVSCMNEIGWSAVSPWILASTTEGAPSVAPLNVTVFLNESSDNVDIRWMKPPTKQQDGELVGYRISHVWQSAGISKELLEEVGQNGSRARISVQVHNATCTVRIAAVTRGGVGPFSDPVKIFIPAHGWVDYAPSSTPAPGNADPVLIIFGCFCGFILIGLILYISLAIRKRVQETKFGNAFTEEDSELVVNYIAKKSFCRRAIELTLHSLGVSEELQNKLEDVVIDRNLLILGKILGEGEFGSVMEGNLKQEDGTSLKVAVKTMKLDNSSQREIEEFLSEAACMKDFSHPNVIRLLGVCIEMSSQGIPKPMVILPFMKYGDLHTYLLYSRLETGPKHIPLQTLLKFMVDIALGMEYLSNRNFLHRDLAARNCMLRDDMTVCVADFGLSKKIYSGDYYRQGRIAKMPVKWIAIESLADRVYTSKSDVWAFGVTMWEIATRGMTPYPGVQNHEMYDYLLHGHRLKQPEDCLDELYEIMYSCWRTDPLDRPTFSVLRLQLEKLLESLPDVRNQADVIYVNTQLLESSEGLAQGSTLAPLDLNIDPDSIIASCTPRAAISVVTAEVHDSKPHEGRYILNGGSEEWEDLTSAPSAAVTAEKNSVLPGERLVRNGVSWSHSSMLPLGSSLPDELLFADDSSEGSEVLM
Procedure, shortened: (§1)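 Duplicate wells; [radiolabeled] ATP phosphate onto cationic substrate; filter capture (negatively charged membrane); scintillation count; % of 100% activity control. Selectivity screen of MK2 peptide inhibitors, 266 human kinases.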

Itk(h) = target: T2, Itk(h) (Homo sapiens, UniProt Q08881)
T2 construct: purchased Millipore
T2 sequence (Q08881 1-620): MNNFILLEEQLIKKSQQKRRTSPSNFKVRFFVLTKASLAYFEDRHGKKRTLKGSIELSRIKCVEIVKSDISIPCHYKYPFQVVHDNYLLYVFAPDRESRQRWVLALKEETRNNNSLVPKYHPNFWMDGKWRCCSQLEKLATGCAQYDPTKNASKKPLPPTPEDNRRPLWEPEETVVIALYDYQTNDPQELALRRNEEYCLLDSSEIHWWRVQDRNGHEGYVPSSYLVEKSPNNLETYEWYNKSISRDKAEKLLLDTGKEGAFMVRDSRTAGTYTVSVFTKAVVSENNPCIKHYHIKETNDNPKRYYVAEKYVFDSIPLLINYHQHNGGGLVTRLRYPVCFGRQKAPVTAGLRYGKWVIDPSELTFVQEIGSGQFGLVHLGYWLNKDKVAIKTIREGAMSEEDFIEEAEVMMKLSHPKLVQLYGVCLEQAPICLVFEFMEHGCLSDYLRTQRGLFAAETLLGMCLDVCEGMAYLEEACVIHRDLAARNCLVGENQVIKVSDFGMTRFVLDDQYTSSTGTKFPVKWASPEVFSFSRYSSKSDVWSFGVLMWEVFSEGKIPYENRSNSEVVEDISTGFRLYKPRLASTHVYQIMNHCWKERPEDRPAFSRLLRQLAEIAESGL
Procedure, shortened: as §1

GCK(h) = target: T3, GCK(h) (Homo sapiens, UniProt Q12851)
T3 construct: purchased Millipore
T3 sequence (Q12851 1-820): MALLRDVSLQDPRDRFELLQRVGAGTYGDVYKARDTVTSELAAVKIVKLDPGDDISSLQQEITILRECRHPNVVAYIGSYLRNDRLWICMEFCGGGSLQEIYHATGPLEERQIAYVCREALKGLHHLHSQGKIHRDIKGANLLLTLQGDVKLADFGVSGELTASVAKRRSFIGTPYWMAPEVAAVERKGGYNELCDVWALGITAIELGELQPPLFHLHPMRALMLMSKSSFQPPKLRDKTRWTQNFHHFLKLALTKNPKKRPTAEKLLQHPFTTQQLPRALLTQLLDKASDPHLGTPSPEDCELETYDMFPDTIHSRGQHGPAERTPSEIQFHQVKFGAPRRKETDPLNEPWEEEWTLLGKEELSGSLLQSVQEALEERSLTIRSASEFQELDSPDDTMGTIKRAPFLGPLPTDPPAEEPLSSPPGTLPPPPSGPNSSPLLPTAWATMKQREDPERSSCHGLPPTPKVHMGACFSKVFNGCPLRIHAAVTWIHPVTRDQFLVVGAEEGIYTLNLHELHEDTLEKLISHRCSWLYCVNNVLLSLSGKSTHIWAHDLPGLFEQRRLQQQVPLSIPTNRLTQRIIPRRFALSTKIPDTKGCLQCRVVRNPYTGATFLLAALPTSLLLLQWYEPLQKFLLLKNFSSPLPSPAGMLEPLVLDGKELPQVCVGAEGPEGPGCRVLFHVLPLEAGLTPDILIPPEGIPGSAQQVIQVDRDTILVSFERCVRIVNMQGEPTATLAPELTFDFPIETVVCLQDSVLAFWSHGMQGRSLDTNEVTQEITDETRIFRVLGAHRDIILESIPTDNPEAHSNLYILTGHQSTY
Procedure, shortened: as §1

Abl(Q252H)(h) = Abl(Q252H)(h) (Homo sapiens, UniProt P00519, Q252H)
Procedure, shortened: as §1

Sequence | % activity (Mer(h)) [%] | % activity (Itk(h)) [%] | % activity (GCK(h)) [%] | % activity (Abl(Q252H)(h)) [%]
YARAAARQARAKALNRQLGVA (Mammal) [MMI-0200] | 90 | 98 | 99 | 
YARAAARQARAKALARQLGVAA [MMI-0100] | 47 | 99 | 98 | 
HRRIKAWLKKIKALARQLGVAA (Mammal) [MMI-0500] | 17 | 7 | 30 | 40
KAFAKLAARLYRKALARQLGVAA [MMI-0400] | 50 | 63 | 66 | 98
FAKLAARLYRKALARQLGVAA [MMI-0300] | 52 | 77 | 70 | 82
